In IntAct's records for PubMed 18084303:

biological target: Nlgn1, Q99K10-1
Sequence (Q99K10 whole entry): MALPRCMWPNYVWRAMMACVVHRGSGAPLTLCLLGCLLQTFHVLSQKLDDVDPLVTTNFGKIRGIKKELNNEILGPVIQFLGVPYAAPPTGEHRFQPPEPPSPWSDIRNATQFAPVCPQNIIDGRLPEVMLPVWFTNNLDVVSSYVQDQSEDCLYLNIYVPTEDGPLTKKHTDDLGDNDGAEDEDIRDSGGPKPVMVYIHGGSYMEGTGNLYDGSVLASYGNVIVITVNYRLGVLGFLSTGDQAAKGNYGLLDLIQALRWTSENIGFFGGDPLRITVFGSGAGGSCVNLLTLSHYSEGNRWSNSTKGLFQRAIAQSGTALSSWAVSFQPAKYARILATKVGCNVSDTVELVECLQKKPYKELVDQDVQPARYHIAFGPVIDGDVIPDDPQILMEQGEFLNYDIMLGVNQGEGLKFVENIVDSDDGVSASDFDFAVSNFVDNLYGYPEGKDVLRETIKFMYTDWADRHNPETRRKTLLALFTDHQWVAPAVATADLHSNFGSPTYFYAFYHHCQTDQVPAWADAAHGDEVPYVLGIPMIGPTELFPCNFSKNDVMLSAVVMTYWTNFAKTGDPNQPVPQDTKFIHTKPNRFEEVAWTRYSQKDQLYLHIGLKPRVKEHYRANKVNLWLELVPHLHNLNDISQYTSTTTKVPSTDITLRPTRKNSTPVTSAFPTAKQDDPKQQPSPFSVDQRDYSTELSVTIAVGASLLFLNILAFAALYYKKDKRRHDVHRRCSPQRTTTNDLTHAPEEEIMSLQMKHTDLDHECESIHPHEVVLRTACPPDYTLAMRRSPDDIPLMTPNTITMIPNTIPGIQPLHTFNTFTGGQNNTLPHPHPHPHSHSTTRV

Chain of Neurexin-1-beta (Homo sapiens), P58400-1 S111R (P58400 other isoform, or with tags, fused parts or gaps S111R): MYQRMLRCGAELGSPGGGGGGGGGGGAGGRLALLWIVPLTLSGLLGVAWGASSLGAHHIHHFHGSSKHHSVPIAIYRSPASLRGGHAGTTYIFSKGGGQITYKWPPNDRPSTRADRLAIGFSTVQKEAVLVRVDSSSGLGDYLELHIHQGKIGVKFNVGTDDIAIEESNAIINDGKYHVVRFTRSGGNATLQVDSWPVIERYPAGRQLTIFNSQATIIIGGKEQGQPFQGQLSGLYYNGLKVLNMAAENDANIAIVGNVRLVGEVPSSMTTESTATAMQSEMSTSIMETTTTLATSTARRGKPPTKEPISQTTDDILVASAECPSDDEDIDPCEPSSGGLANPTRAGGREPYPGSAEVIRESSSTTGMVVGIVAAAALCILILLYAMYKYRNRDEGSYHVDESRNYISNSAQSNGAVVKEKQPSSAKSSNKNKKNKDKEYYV
Chain of Neurexin-1-beta (Homo sapiens), P58400-1 L240R (P58400 other isoform, or with tags, fused parts or gaps L240R): as the sequence (P58400 other isoform, or with tags, fused parts or gaps S111R) above
Chain of Neurexin-1-beta (Homo sapiens), P58400-1 D141S (P58400 other isoform, or with tags, fused parts or gaps D141S): as the sequence (P58400 other isoform, or with tags, fused parts or gaps S111R) above
Chain of Neurexin-1-beta (Homo sapiens), P58400-1 L139R (P58400 other isoform, or with tags, fused parts or gaps L139R): as the sequence (P58400 other isoform, or with tags, fused parts or gaps S111R) above

Substance	effect of a mutation on the interaction
Neurexin-1-beta (Homo sapiens), P58400-1 D141S	disrupting interaction
Neurexin-1-beta (Homo sapiens), P58400-1 L240R	disrupting interaction
Neurexin-1-beta (Homo sapiens), P58400-1 L139R	disrupting interaction
Neurexin-1-beta (Homo sapiens), P58400-1 S111R	disrupting interaction
